Measured values from paper PMC6070888.
Where two headings read alike, the source gives them in different places.

Biological target: T1, ZafA ZF3-6 (Aspergillus fumigatus) (UniProt Q4WT96)
T1 sequence: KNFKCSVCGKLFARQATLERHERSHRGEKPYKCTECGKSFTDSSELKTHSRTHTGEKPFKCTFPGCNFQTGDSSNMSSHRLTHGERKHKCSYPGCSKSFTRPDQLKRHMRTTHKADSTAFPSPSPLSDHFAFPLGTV
Assay: EMSA

Sequence | binding (EMSA buffer 25 mM Tris-HCl pH 8, 50 mM KCl, 1 mM MgCl2, 12.5% glycerol, 1 mM DTT, 0.2 ug BSA, protein dialyzed in buffer with 10 uM ZnCl2, 30 C (EMSA 1 h …)) | binding
ATGTCCGCACGGAGAGCCACAAACGAGCGGGGCCCCGTACGTGCTCTCCTACCCCAGGATCGCATCCCCGCATAGCTGAACATCTATATAAAGACCCCCAAGGTTCTCAGTCTCACCAACATCATCAACCAACAATCAACAGTTCTCTACTCAGTTAATTAGAACTCTTCCAATCCTATCACCTCGCCTCACCATGGCCATCTAGAGGTACCA (double strand) [PalcA wild type 213 bp EMSA fragment] | binds | 
TGGTACCTCTAGATGGCCATGGTGAGGCGAGGTGATAGGATTGGAAGAGTTCTAATTAACTGAGTAGAGAACTGTTGATTGTTGGTTGATGATGTTGGTGAGACTGAGAACTGAGGGGGTCTTTATATAGATGTTCAGCTATGCGGGGATGCGATCCTGGGGTAGGAGAGCACGTACGGGGCCCCGCTCGTTTGTGGCTCTCCGTGCGGACAT (double strand) [PalcA mutant (CAAGGT to CTCAGT)] |  | no binding
